Reference: article PMC11191641

Biological target: His-tagged ferritin-based nanoparticle (FNP): Helicobacter pylori ferritin with N-terminal domain B (S. aureus | Helicobacter pylori)
Test: BLI
Conditions: Fc fusion

“NiV-B-G-Fc: Nipah virus Bangladesh attachment glycoprotein G (residues 176-602) fused with a C-terminal human IgG1 Fc (from UniProt P01857)” gave a Kd of 9.46 nM.
